± gives the standard deviation of the averaged measurements.
Tests used:
MCF7 = assay: percentage of EdU-negative (G0-arrested) nuclei per well, 72 h; higher = more G0 arrest; conditions: reference: sequence is the full UniProt precursor, the tested protein was the secreted form or ectodomain
hTERT-HMEC = assay: as above; conditions: reference: sequence is the full UniProt precursor, the tested protein was the secreted form or ectodomain
[1] = protein concentration 0.0225 µM
[2] = protein concentration 0.03108 µM
[3] = protein concentration 0.3108 µM
[4] = protein concentration 0.01525 µM
[5] = protein concentration 0.1525 µM
[6] = protein concentration 0.00685714 µM
[7] = protein concentration 0.0685714 µM
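Further: secreted proteins added to cultured cells, EdU pulse at the end, nuclei found by Hoechst imaging, EdU status from nuclear versus surrounding ring intensity ratio, PBS as neutral control.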

MKLAFLFLGPMALLLLAGYGCVLGASSGNLRTFVGCAVREFTFLAKKPGCRGLRITTDACWGRCETWEKPILEPPYIEAHHRVCTYNETKQVTVKLPNCAPGVDPFYTYPVAIRCDCGACSTATTECETI [Q86YW7]
percentage of EdU-negative (MCF7; [1]): 25.3 ± 2.8%
percentage of EdU-negative (MCF7; protein concentration 0.225 µM): 25.8 ± 1.5%
percentage of EdU-negative (hTERT-HMEC; [1]): 5.52 ± 0.71%
percentage of EdU-negative (hTERT-HMEC; protein concentration 0.225 µM): 5.1 ± 0.082%

MEFLWAPLLGLCCSLAAADRHTVFWNSSNPKFRNEDYTIHVQLNDYVDIICPHYEDHSVADAAMEQYILYLVEHEEYQLCQPQSKDQVRWQCNRPSAKHGPEKLSEKFQRFTPFTLGKEFKEGHSYYYISKPIHQHEDRCLRLKVTVSGKITHSPQAHDNPQEKRLAADDPEVRVLHSIGHSAAPRLFPLAWTVLLLPLLLLQTP
percentage of EdU-negative (MCF7; [2]): 24.521 ± 0.0085%
percentage of EdU-negative (MCF7; [3]): 24.81 ± 0.061%
percentage of EdU-negative (hTERT-HMEC; [2]): 6.23 ± 0.24%
percentage of EdU-negative (hTERT-HMEC; [3]): 7.2445 ± 0.004%

MGPGRPAPAPWPRHLLRCVLLLGCLHLGRPGAPGDAALPEPNVFLIFSHGLQGCLEAQGGQVRVTPACNTSLPAQRWKWVSRNRLFNLGTMQCLGTGWPGTNTTASLGMYECDREALNLRWHCRTLGDQLSLLLGARTSNISKPGTLERGDQTRSGQWRIYGSEEDLCALPYHEVYTIQGNSHGKPCTIPFKYDNQWFHGCTSTGREDGHLWCATTQDYGKDERWGFCPIKSNDCETFWDKDQLTDSCYQFNFQSTLSWREAWASCEQQGADLLSITEIHEQTYINGLLTGYSSTLWIGLNDLDTSGGWQWSDNSPLKYLNWESDQPDNPSEENCGVIRTESSGGWQNRDCSIALPYVCKKKPNATAEPTPPDRWANVKVECEPSWQPFQGHCYRLQAEKRSWQESKKACLRGGGDLVSIHSMAELEFITKQIKQEVEELWIGLNDLKLQMNFEWSDGSLVSFTHWHPFEPNNFRDSLEDCVTIWGPEGRWNDSPCNQSLPSICKKAGQLSQGAAEEDHGCRKGWTWHSPSCYWLGEDQVTYSEARRLCTDHGSQLVTITNRFEQAFVSSLIYNWEGEYFWTALQDLNSTGSFFWLSGDEVMYTHWNRDQPGYSRGGCVALATGSAMGLWEVKNCTSFRARYICRQSLGTPVTPELPGPDPTPSLTGSCPQGWASDTKLRYCYKVFSSERLQDKKSWVQAQGACQELGAQLLSLASYEEEHFVANMLNKIFGESEPEIHEQHWFWIGLNRRDPRGGQSWRWSDGVGFSYHNFDRSRHDDDDIRGCAVLDLASLQWVAMQCDTQLDWICKIPRGTDVREPDDSPQGRREWLRFQEAEYKFFEHHSTWAQAQRICTWFQAELTSVHSQAELDFLSHNLQKFSRAQEQHWWIGLHTSESDGRFRWTDGSIINFISWAPGKPRPVGKDKKCVYMTASREDWGDQRCLTALPYICKRSNVTKETQPPDLPTTALGGCPSDWIQFLNKCFQVQGQEPQSRVKWSEAQFSCEQQEAQLVTITNPLEQAFITASLPNVTFDLWIGLHASQRDFQWVEQEPLMYANWAPGEPSGPSPAPSGNKPTSCAVVLHSPSAHFTGRWDDRSCTEETHGFICQKGTDPSLSPSPAALPPAPGTELSYLNGTFRLLQKPLRWHDALLLCESRNASLAYVPDPYTQAFLTQAARGLRTPLWIGLAGEEGSRRYSWVSEEPLNYVGWQDGEPQQPGGCTYVDVDGAWRTTSCDTKLQGAVCGVSSGPPPPRRISYHGSCPQGLADSAWIPFREHCYSFHMELLLGHKEARQRCQRAGGAVLSILDEMENVFVWEHLQSYEGQSRGAWLGMNFNPKGGTLVWQDNTAVNYSNWGPPGLGPSMLSHNSCYWIQSNSGLWRPGACTNITMGVVCKLPRAEQSSFSPSALPENPAALVVVLMAVLLLLALLTAALILYRRRQSIERGAFEGARYSRSSSSPTEATEKNILVSDMEMNEQQE [Q9UBG0]
percentage of EdU-negative (MCF7; [4]): 25.5 ± 1.7%
percentage of EdU-negative (MCF7; [5]): 24.5 ± 0.7%
percentage of EdU-negative (hTERT-HMEC; [4]): 4.54 ± 0.35%
percentage of EdU-negative (hTERT-HMEC; [5]): 6.08 ± 1.1%

MAAVRGAPLLSCLLALLALCPGGRPQTVLTDDEIEEFLEGFLSELEPEPREDDVEAPPPPEPTPRVRKAQAGGKPGKRPGTAAEVPPEKTKDKGKKGKKDKGPKVPKESLEGSPRPPKKGKEKPPKATKKPKEKPPKATKKPKEKPPKATKKPKEKPPKATKKPPSGKRPPILAPSETLEWPLPPPPSPGPEELPQEGGAPLSNNWQNPGEETHVEAREHQPEPEEETEQPTLDYNDQIEREDYEDFEYIRRQKQPRPPPSRRRRPERVWPEPPEEKAPAPAPEERIEPPVKPLLPPLPPDYGDGYVIPNYDDMDYYFGPPPPQKPDAERQTDEEKEELKKPKKEDSSPKEETDKWAVEKGKDHKEPRKGEELEEEWTPTEKVKCPPIGMESHRIEDNQIRASSMLRHGLGAQRGRLNMQTGATEDDYYDGAWCAEDDARTQWIEVDTRRTTRFTGVITQGRDSSIHDDFVTTFFVGFSNDSQTWVMYTNGYEEMTFHGNVDKDTPVLSELPEPVVARFIRIYPLTWNGSLCMRLEVLGCSVAPVYSYYAQNEVVATDDLDFRHHSYKDMRQLMKVVNEECPTITRTYSLGKSSRGLKIYAMEISDNPGEHELGEPEFRYTAGIHGNEVLGRELLLLLMQYLCREYRDGNPRVRSLVQDTRIHLVPSLNPDGYEVAAQMGSEFGNWALGLWTEEGFDIFEDFPDLNSVLWGAEERKWVPYRVPNNNLPIPERYLSPDATVSTEVRAIIAWMEKNPFVLGANLNGGERLVSYPYDMARTPTQEQLLAAAMAAARGEDEDEVSEAQETPDHAIFRWLAISFASAHLTLTEPYRGGCQAQDYTGGMGIVNGAKWNPRTGTINDFSYLHTNCLELSFYLGCDKFPHESELPREWENNKEALLTFMEQVHRGIKGVVTDEQGIPIANATISVSGINHGVKTASGGDYWRILNPGEYRVTAHAEGYTPSAKTCNVDYDIGATQCNFILARSNWKRIREIMAMNGNRPIPHIDPSRPMTPQQRRLQQRRLQHRLRLRAQMRLRRLNATTTLGPHTVPPTLPPAPATTLSTTIEPWGLIPPTTAGWEESETETYTEVVTEFGTEVEPEFGTKVEPEFETQLEPEFETQLEPEFEEEEEEEKEEEIATGQAFPFTTVETYTVNFGDF [Q8IUX7]
percentage of EdU-negative (MCF7; [6]): 24.8 ± 1.1%
percentage of EdU-negative (MCF7; [7]): 28.5 ± 0.34%
percentage of EdU-negative (hTERT-HMEC; [6]): 4.79 ± 0.43%
percentage of EdU-negative (hTERT-HMEC; [7]): 11.5 ± 0.62%
